Data on one molecule can be found in patent US20250215403A1, “Compositions and Methods for Cardiac Tissue Regeneration” (Temple University - Of The Commonwealth System Of Higher …, priority 2022, published 2025).

The test system of one series is PSAT1. Kind of series: PSAT1 protein expression in mouse myocardium post-MI after modRNA delivery. The format is in vivo. The conditions noted are these: 100 μg modRNA into myocardium post-MI; within 24 hours. The procedure: In vivo transfection of modRNA was done as described previously in a recent method paper (Magadum A., et al., Circulation. 2020, 141 (15): 1249-1265; Sultana N., et al., Mol Ther, 2017, 25 (6): 1306-1315) using sucrose citrate buffer containing 10 μl of sucrose in nuclease-free water (0.3 g/ml), 10 μl of citrate (0.1M pH-7; Sigma) mixed with 10 μl of different concentrations of modRNA in saline to a total volume of 30 μl. Immediately after LAD ligation, mice received an intra-myocardial injection of modRNA (100 μg) in total volume of 30 μL at 3 different sites (mid-anterior×2 places and apical anterior) in the peri-infarct area (Magadum A., et al., Circulation. 2020, 141 (15): 1249-1265; Magadum, A., et al., 2021, Advanced Science, 9:2004661). For in vitro transfection, RNAiMAX transfection reagent (Life Technologies) was used according to manufacturer's recommendation (Magadum A., et al., Circulation. 2020, 141 (15): 1249-1265; Sultana N., et al., Mol Ther, 2017, 25 (6): 1306-1315).
All surgical and experimental procedures with mice were performed in accordance with protocols approved by Institutional Animal Care and Use Committees at Temple University Animal Care and Use Committee (IACUC). C57BL6 or CM-specific MADM mice (8-12-weeks-old) were anesthetized with isoflurane. […] This ratio was calculated as the heart tissue weight relative to the mouse total body weight in grams (g). […]

The next series deals with β-catenin. Kind of series: β-catenin immunostaining in CM nucleus and cytoplasm. Conditions: NRVM; 48 hours after modRNA. It is filed as cell-based, rat. The procedure: Mice hearts were harvested, weighed, and fixed in 4% PFA/PBS overnight on shaker and then washed with PBS for 1 hour and incubated in 30% sucrose/PBS at 4° C. for 12-18 hours. Hearts were then fixed in OCT and frozen at −80° C. (Magadum A., et al., Circulation. 2020, 141 (15): 1249-1265). Transverse heart sections (6-8 μm) were made using a cryostat. Frozen sections were rehydrated in PBS for 5-10 min followed by permeabilization with PBS with 0.1% Triton™ X100 (PBST) for 7-8 min. Heart sections were then treated with 3% H2O2 for 5 min and washed (3×5 min) with PBST. The samples were then blocked with PBS+10% Donkey normal serum+0.1% Triton™ X100 (PBSST) for 1 hour at room temperature. Primary antibodies (see complete list of primary antibodies used for this Example in Table 2 below) diluted in PBST were added and incubated overnight at 4° C. […] For immunostaining with wheat germ agglutinin (WGA) for CM size quantification, images were captured at 40× magnification, and ImageJ was used to determine the area of each cell. Quantitative analyses involved counting of multiple fields from 5-8 mouse hearts per group, and 3-4 sections/heart (˜50 cells per field assessed, for a total ˜250 cells per sample). […] BrdU positive CMs were counted in multiple fields from three independent samples per group and 3 sections/heart. The total number of CMs counted was ˜1-1.5×10^3 CMs per section. […]

B1: PSAT1 modRNA: modified mRNA with N1-methylpseudouridine, transcribed in vitro, encoding phosphoserine aminotransferase 1 (ORF SEQ ID NO: 1, RNA SEQ ID NO: 2) (nucleic acid)
chain: AUGGAAGCCACCAAGCAAGUGGUUAACUUUGGGCCCGGGCCUGCCAAGCUGCCACACUCGGUAUUGUUGGAGAUCCAGAAGCAGCUACUAGACUACAGAGGACUCGGCAUCAGUGUGCUCGAAAUGAGUCACAGGUCAUCAGAUUUUGCCAAGAUUAUUGGCAAUACAGAGAAUCUUGUGAGGGAAUUGCUAGCUGUUCCCAACAACUACAAGGUGAUCUUUGUACAAGGAGGUGGGUCUGGCCAGUUCAGUGCUGUCCCCUUAAAUCUGAUUGGCCUGAAAGCUGGAAGGAGUGCUGACUACGUGGUGACCGGAGCUUGGUCAGCUAAGGCUGCGGAAGAAGCCAAGAAGUUUGGAACGGUGAACAUUGUCCACCCUAAACUUGGAAGUUACACAAAAAUUCCAGACCCAAGCACCUGGAACCUCAACCCGGACGCCUCCUAUGUAUACUUCUGUGCAAACGAGACUGUGCACGGGGUGGAGUUUGACUUCGUACCUGACGUCAAGGGAGCGGUGCUGGUCUGUGACAUGUCCUCAAACUUCUUAUCCAGGCCGGUGGAUGUUUCCAAGUUUGGUGUGAUUUUCGCUGGUGCUCAGAAGAAUGUUGGCUCUGCCGGGGUGACGGUGGUGAUUGUCCGGGAUGACCUGCUGGGGUUCUCGCUCAGAGAGUGCCCAUCAGUCCUUGACUACAAAGUGCAGGCUGGGAACAACUCUUUGUAUAACACACCUCCGUGCUUCAGCAUCUACGUCAUGGGCAUGGUCCUGGAAUGGAUCAAGAACAACGGCGGGGCCGCAGCCAUGGAGAAGCUCAGCUCCAUCAAAUCCCAAAUGAUUUAUGAGAUCAUUGAUAAUUCUCAAGGAUUUUAUGUAUGCCCAGUGGAGCGCCAGAAUAGAAGCAGGAUGAACAUCCCAUUUCGCAUUGGCAACGCCAAAGGAGACGAAGCUUUGGAAAAGCGGUUUCUUGACAAGGCGGUAGAACUCAACAUGAUCUCCUUGAAGGGGCACAGGUCAGUGGGAGGCAUUCGUGCCUCUCUGUAUAACGCUGUCACAACCGAAGACGUUGAGAAGCUGGCGGCCUUCAUGAAGAAUUUCUUGGAGAUGCAUCAGCUGUGA
modifications: N1-methylpseudouridine
With B1, the “PSAT1 protein expression in mouse myocardium” value in the series with PSAT1 is listed as “robust”. In the series on β-catenin, the “stabilized β-catenin localisation to CM nuclei” value is “translocated” and the β-catenin stabilization result is “significantly induced”.
